Reference: US20240270826A1 (NATIONAL RESEARCH COUNCIL OF CANADA, published 2024)
Like-named read-outs stand apart in the source and are kept apart here.

Assays:
[1] = target: T1, Human SARS-CoV-2_Wuhan S (SmT1) (SARS-CoV-2 (Wuhan), UniProt P0DTC2 14-1208); test: SPR, VHH over immobilised S
[2] = target: T1, Human SARS-CoV-2_Wuhan S (SmT1); test: SPR, VHH over immobilised S; remark: listed apart in the source
SARS-CoV spike (S) = SARS-CoV spike (S) (SARS-CoV, UniProt P59594 14-1195); test: SPR, VHH over immobilised S
[3] = target: T2, SARS-CoV-2 S on CHO-S cells (SARS-CoV-2, UniProt P0DTC2 14-1273); test: flow cytometry, CHO-S cells
T2 construct: whole, on cells

[4] = target: Human SARS-CoV-2_Wuhan S (SmT1) (SARS-CoV-2 (Wuhan), UniProt P0DTC2 14-1208); test: flow cytometry SVNA, VHH-Fc vs biotin-S binding to Vero E6 ACE2

Row | Binder | Kd [1] | koff [1] | kon [1] | Kd [2] | binding result (SARS-CoV spike (S)) | also measured
1 | NRCoV2-20 VHH (VHH) VHH: EVQLQQSGGGLVQPGGSLRLSCAASGRTFSNYVVGWFRQAPQAPGKDHEFVAVISGSDTETYYADSVKGRFTISRDNAKNTVYLQMNSLKPEDTAVYYCAADRGMSYYYTRATEYYYWGQGTQVTVSS | 4.39 nM | 0.0116 s⁻¹ | 2.64e+06 M⁻¹ s⁻¹ | 4.39 nM |  | 
2 | NRCoV2-07 VHH (VHH) VHH: QVQLVQSGGGLVQPGGSLRLSCAASGVTLDYYAIGWFRQAPGKEREAVSCISSNGRRNHYVASVRGRFTISRDNAKSTVYLQMNSLKPEDTAVYYCAAVQDVHGDNYYCTSPNEYNVWGQGTQVTVSS | 0.939 nM | 0.000355 s⁻¹ | 378000 M⁻¹ s⁻¹ | 0.94 nM |  | Kd (SARS-CoV spike (S)): 12.2 nM; koff (SARS-CoV spike (S)): 0.00146 s⁻¹; kon (SARS-CoV spike (S)): 120000 M⁻¹ s⁻¹
3 | NRCoV2-02 VHH (VHH) VHH: EVQLVESGGGLVQAGGSLRLSCAASGFTFSNYAMNWVRQAPGKGLEWVSGISGRGDDTRYADSVKGRFTISRDNAKNTLFLQMRSLRPEDTGVYRCTKGPDLYYFGSGYSDRGQGTQVTVSS | 0.624 nM | 0.00127 s⁻¹ | 2.04e+06 M⁻¹ s⁻¹ | 0.62 nM | no binding | 
4 | NRCoV2-S2H4 VHH-Fc (Fc fusion, bivalent VHH-Fc) QVQLVQSGGGLVQAGGSLRLSCAASGFTFNLYSIAWFRQAPGKEREGVSCINSGDRDSTTYYADSVKGRFTISRDNAKHTAYLQMDSLKPEDTAVYYCALVFGYTSRDYCLTPKRGNYWGQGTQVTVSS |  |  |  |  |  | Bmax [3]: 7910; EC50 [3]: 1 nM
5 | NRCoV2-MRed25 VHH-Fc (Fc fusion, bivalent VHH-Fc) EVQLVESGGGLVQAGGSLRLSCAASGHTFSRYGMGWFRQAPGKEREFVAAISWRGDSTYYRDSVNGRFTISRDNAKNTVYLGMNSLKPEDTAVYYCAAEMWGTATIVASRYTYWGQGTQVTVSS |  |  |  |  |  | Bmax [3]: 4420; EC50 [3]: 0.8 nM
6 | NRCoV2-1a VHH-Fc (Fc fusion, bivalent VHH-Fc) EVKLVQSGGGSVQPGGSLRLSCAASGSTLDYYAIGWFRQAPGKEREWVSCVSSSDGSTLYADSVKGRFTISRDNAKNTVYLQMNSLKPEDTAVYVCAADYSMRPLWVSRWHRDYEYWGQGTQVTVSS [NRCoV2-1a VHH-Fc, listing 1 of 2 here] |  |  |  |  |  | Bmax [3]: 17200; EC50 [3]: 1.1 nM
7 | NRCoV2-1d VHH (VHH) VHH: EVQLVESGGGSVQPGGSLRLSCAASGSTLDYYAIGWFRQAPGKEREWVSSVSSSDGNTLYADSVKGRFTISRDNAKNTVYLQMNSLKAEDTAVYVCAADYSMRPFAVGRWHRDYEYWGQGTQVTVSS | 0.75 nM | 0.00105 s⁻¹ | 1.39e+06 M⁻¹ s⁻¹ | 0.75 nM |  | 
8 | NRCoV2-1a VHH-Fc (Fc fusion, bivalent VHH-Fc) EVKLVQSGGGSVQPGGSLRLSCAASGSTLDYYAIGWFRQAPGKEREWVSCVSSSDGSTLYADSVKGRFTISRDNAKNTVYLQMNSLKPEDTAVYVCAADYSMRPLWVSRWHRDYEYWGQGTQVTVSS [NRCoV2-1a VHH-Fc, listing 2 of 2 here] |  |  |  |  |  | IC50 [4]: 9.2 nM; IC99 [4]: 89.4 nM; Imax % [4]: 94%
9 | NRCoV2-11 VHH (VHH) VHH: EVQLVSSGGGLVQPGGSLRLSCAASGSSLDSYSVSWFRQAPGKEREWISFISRYYSSTYYTDSVKGRFTTSRDGDQKTVHLQMNSLKPEDTAVYYCAARSRDFSSPFSATDTYTSWGQGTQVTVSS | 0.0177 nM | 1.71e-05 s⁻¹ | 964000 M⁻¹ s⁻¹ | 0.018 nM |  | Kd (SARS-CoV spike (S)): 0.014 nM; koff (SARS-CoV spike (S)): 2.7e-05 s⁻¹; kon (SARS-CoV spike (S)): 1.93e+06 M⁻¹ s⁻¹
10 | NRCoV2-10 VHH (VHH) VHH: QLQLQESGGGLVQPGGSLTLSCAASGNTFSRSNMHWYRQAPGAQREWVAAISSRGISTYAYSAKGRFTISRDNAKNTVSLQMNSLKPEDTAVYYCYAADDLGDYWGQGTQVTVSS | 0.199 nM | 0.000116 s⁻¹ | 581000 M⁻¹ s⁻¹ | 0.2 nM | no binding | 
11 | NRCoV2-03 VHH (VHH) VHH: EVQLVSSGGGLVQAGGSLRLSCTASGITFSYYAMGWYRQAPGQPRELVASMSNMDSTIYADSVKGRFTISRDNAKTTIYLQMNNLKPEDTAVYFCNIYGPTYSTRRNEYWGQGTQVTVSS | 1.56 nM | 0.000181 s⁻¹ | 116000 M⁻¹ s⁻¹ | 1.56 nM | no binding | 
12 | NRCoV2-11a VHH-Fc (Fc fusion, bivalent VHH-Fc) EVQLQQSGGGLVQPGGSLRLSCAASGFTLDSYNIAWFRQAPGKEREWISYISRYYESTYYSDSVKGRFTTSRDGDKKTVSLQMNSLKSEDTAVYYCAARSRDFSSPISATDKYGSWGQGTQVTVSS [NRCoV2-11a VHH-Fc, listing 1 of 2 here] |  |  |  |  |  | Bmax [3]: 12000; EC50 [3]: 2 nM
13 | NRCoV2-11a VHH-Fc (Fc fusion, bivalent VHH-Fc) EVQLQQSGGGLVQPGGSLRLSCAASGFTLDSYNIAWFRQAPGKEREWISYISRYYESTYYSDSVKGRFTTSRDGDKKTVSLQMNSLKSEDTAVYYCAARSRDFSSPISATDKYGSWGQGTQVTVSS [NRCoV2-11a VHH-Fc, listing 2 of 2 here] |  |  |  |  |  | IC50 [4]: 9.7 nM; IC99 [4]: 67.6 nM; Imax % [4]: 46%
14 | NRCoV2-SR13 VHH (VHH) VHH: EVQLVESGGGLVTTGGSLRLSCATSGSRFGSKHMAWYRQAPGKQRDLVAAISSGGSTHYGSSVKGRFTISRDNAKSTVYLQMNSLNPEDTAVFYCNMGGWDYRSNTYIPGSRSDYWGQGTQVTVSS | 3.56 nM | 0.00376 s⁻¹ | 1.06e+06 M⁻¹ s⁻¹ | 3.6 nM |  | 
15 | NRCoV2-06 VHH (VHH) VHH: EVQLVQSGGGLVQAGESLRLSCAASVSTFSSYAMGWYRQAPGKQRELVASIGFVGATYYIDSVKGRFTISRDNAKKTAYLQMNDLKPDDTAVYYCNARHYGGSEYWGQGTQVTVSS | 223 nM | 0.00456 s⁻¹ | 20500 M⁻¹ s⁻¹ | 223 nM | no binding | 
16 | NRCoV2-18 VHH (VHH) VHH: EVQLVESGGGLVQAGGSLRLSCVASGITISGYNMAWWRQTRGKQTERVAFINSGGSTTYSDSVKGRFTISRDNGKNTAYLQMNSLNAEDTADYFCSLHTSHDYWGQGTQVTVSS | 0.318 nM | 9.39e-05 s⁻¹ | 295000 M⁻¹ s⁻¹ | 0.32 nM |  | 
17 | NRCoV2-04 VHH (VHH) VHH: AVQLVDSGGGLVQPGGSLRLSCAASGSPFSNVVMAWYRQAPGKQRERVAFISGGGIADYIMSVKGRFTISRDNAKNTVYLQMNSLKPEDTAVYYCWSSYESTWGQGTQVTVSS | 10.2 nM | 0.0188 s⁻¹ | 1.84e+06 M⁻¹ s⁻¹ | 10.2 nM | no binding | 
18 | NRCoV2-05 VHH (VHH) VHH: EVKLVQSGGGLVQPGGSLRLSCAASGFIFSNYAMNWVRQAPGKGLEWVSGINSGGGDTRYADSVKGRFTVSRDNAKNTLYLQMNSLKPEDTGVYYCSKGPVSSYYGSGYDYRGQGTQVTVSS | 2.57 nM | 0.00709 s⁻¹ | 2.76e+06 M⁻¹ s⁻¹ | 2.6 nM | no binding | 
19 | NRCoV2-SR02 VHH (VHH) VHH: EVQLVDSGGGLVQAGGSLRLSCTASEFTLNYYSIGWFRQSPGKEREGVSCIRYSGGGIDYADSVKGRFTISRDNAKNTVYLTMNSLKPEDTAVYYCAADRLYSRACPTAGGRNYWGQGTQVTVSS | 0.135 nM | 0.000669 s⁻¹ | 4.98e+06 M⁻¹ s⁻¹ | 0.47 nM |  | 
